In US7176279:

Experiments:
[1] = target: hMC3-R (human) (UniProt P41968); test: competition with 125I-NDP-MSH, HEK 293 hMC3-R membranes, 1 µM peptide
[2] = target: hMC4-R (human) (UniProt P32245); test: competition with 125I-NDP-MSH, HEK 293 hMC4-R membranes, 1 µM peptide
[3] = target: hMC5-R (human) (UniProt P33032); test: competition with 125I-NDP-MSH, HEK 293 hMC5-R membranes, 1 µM peptide
Chain of hMC5-R (human) (P33032 whole entry): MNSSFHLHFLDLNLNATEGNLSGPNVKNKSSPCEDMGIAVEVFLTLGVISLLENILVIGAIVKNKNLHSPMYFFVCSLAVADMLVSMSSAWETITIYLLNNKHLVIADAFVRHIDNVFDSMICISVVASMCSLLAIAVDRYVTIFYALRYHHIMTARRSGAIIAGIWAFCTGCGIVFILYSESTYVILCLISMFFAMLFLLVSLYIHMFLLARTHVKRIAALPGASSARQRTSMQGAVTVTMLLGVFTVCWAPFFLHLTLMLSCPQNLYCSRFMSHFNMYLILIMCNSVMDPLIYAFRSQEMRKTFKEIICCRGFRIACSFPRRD

Chain of hMC4-R (human) (P32245 whole entry): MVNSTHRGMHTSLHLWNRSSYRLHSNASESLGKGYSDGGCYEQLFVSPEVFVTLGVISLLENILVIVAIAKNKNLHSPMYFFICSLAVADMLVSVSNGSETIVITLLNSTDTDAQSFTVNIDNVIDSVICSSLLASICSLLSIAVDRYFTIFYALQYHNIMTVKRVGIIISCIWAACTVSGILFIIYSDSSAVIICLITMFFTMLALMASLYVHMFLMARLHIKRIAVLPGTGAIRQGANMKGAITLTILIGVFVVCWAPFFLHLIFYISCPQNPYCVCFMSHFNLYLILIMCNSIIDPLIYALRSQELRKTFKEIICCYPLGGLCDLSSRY
Chain of hMC3-R (human) (P41968 whole entry): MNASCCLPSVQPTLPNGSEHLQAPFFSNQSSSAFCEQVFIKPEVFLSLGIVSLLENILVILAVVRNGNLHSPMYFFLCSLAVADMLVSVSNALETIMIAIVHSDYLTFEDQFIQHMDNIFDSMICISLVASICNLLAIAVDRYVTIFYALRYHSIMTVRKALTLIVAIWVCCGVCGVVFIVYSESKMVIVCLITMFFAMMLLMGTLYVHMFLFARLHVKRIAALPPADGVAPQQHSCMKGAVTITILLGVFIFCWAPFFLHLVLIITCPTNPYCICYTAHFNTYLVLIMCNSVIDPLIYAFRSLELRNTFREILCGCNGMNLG

Percent Inhibition At 1 µM concentration [1]	Percent Inhibition At 1 µM concentration [2]	Percent Inhibition At 1 µM concentration [3]	Substance
6%	–	–	Ac-Nle-cyclo(-Asp-His-D-Phe-Orn-Trp-Lys)-OH (peptide)
–	4%	–	Ac-Nle-cyclo(-Asp-His-D-Phe-D-Arg-Trp-Lys)-OH (peptide)
–	9%	8%	Ac-Nle-cyclo(-Asp-D-His-D-Phe-Arg-Trp-Lys)-OH (peptide)
–	4%	7%	Ac-Nle-cyclo(-Asp-His-Phe-Arg-Trp-Lys)-OH (SEQ ID NO:2) (peptide)
